Data: PMC6021111, “Murine leukemia virus p12 tethers the capsid-containing pre-integration complex to chromatin by binding directly to host nucleosomes in mitosis” (PLoS Pathogens, 2018)

How the values were obtained:
[1] = target: partner chain of the complex shown [chain 1 S65A R66A L67A R68A G69A]; assay: SILAC-MS of GST pull-down; conditions: mitotic 293T cell lysates
[2] = target: C-terminally His-tagged N-MLV CA WT (N-tropic murine leukaemia virus (N-MLV)); assay: co-sedimentation
C-terminally His-tagged N-MLV CA WT (N-tropic murine leukaemia virus (N-MLV)), sequence (P03336 215-477 limits assumed): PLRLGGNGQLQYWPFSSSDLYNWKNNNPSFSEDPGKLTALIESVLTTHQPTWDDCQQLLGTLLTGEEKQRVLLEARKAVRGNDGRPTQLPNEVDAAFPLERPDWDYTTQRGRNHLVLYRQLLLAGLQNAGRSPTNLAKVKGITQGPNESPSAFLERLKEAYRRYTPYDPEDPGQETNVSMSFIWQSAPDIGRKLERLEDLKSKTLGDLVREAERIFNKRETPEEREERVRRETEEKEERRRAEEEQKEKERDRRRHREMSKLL

[3] = system: hCBS soluble competitor peptide (prototypic foamy virus (PFV)); assay: competition; conditions: scale: fold decrease of nucleosome binding to immobilised hCBS
[4] = target: GST-tagged Mo-MLV p12_M63I with S61E (Moloney murine leukaemia virus (Mo-MLV)); assay: pull-down
[5] = target: GST-tagged FeLV p12 I52M (feline leukaemia virus (FeLV)); assay: pull-down
[6] = target: GST-tagged Mo-MLV p12_M63I with S61A (Moloney murine leukaemia virus (Mo-MLV)); assay: pull-down
[7] = target: GST-tagged Mo-MLV p12_M63I with S61D (Moloney murine leukaemia virus (Mo-MLV)); assay: pull-down
[8] = target: GST-tagged FeLV p12 A53V (feline leukaemia virus (FeLV)); assay: pull-down
[9] = target: GST-tagged Mo-MLV p12_M63I (Moloney murine leukaemia virus (Mo-MLV)); assay: pull-down


N-MLV p12_WT (purified, untagged) (natural protein), sequence (P03336 130-214 limits assumed): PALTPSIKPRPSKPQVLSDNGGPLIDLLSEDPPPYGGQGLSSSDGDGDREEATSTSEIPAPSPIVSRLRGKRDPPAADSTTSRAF

screen value (SDs from the mean) ([1]; replicate R1): 1.1
screen value (SDs from the mean) ([1]; replicate R2): 2.1

N-MLV p12_WT (purified, untagged) (natural protein)
amount of p12 pelleted by the CA-nanotubes (67 pmol CA loaded) [2]: 11.2 pmol
stoichiometry N (p12 per CA (1:6)) [2]: 0.167

recombinant H3.3 poly-nucleosomes
binding signal [3]: 10

histone H2B (from UniProt P62807 1-126) (natural protein)
fold reduction in histone pull down against GST-p12 M63I [4]: 1.5 fold
fold difference in histone precipitation against the WT FeLV p12 [5]: < 2 fold
fold reduction in histone pull down against GST-p12 M63I [6]: 3 fold
fold reduction in histone pull down against GST-p12 M63I [7]: 6 fold
fold difference in histone precipitation against the WT FeLV p12 [8]: < 2 fold
fold more histones pulled down from mitotic than from interphase cell lysates [9]: 4 fold
fold reduction of H2B precipitation after kenpaullone [9]: 3.5 fold
fold reduction of H2B precipitation after roscovitine [9]: 1.5 fold
